Earlier results on 14 molecules are cited in patent US10906951B2, “Modified natural killer cells and natural killer cell lines having increased cytotoxicity” (ONK THERAPEUTICS LIMITED, priority 2015, dated 2021).

For this data set, the target named is DR4 (Homo sapiens, UniProt O00220). As to conditions: in words; known from WO 2009/066174, MacFarlane 2005; cited from earlier work.

Residue numbers refer to the chain shown, from its start. In names and notes the source's numbering stands.

B1: G131R/D218H: TRAIL DR4 variant, WO 2009/066174 (protein, UniProt P50591 1-281, looked up, variant G131R D218H)
Tumor necrosis factor ligand …: MAMMEVQGGPSLGQTCVLIVIFTVLLQSLCVAVTYVYFTNELKQMQDKYSKSGIACFLKEDDSYWDPNDEESMNSPCWQVKWQLRQLVRKMILRTSEETISTVQEKQQNISPLVRERGPQRVAAHITGTRRRSNTLSSPNSKNEKALGRKINSWESSRSGHSFLSNLHLRNGELVIHEKGFYYIYSQTYFRFQEEIKENTKNDKQMVQYIYKYTSYPHPILLMKSARNSCWSKDAEYGLYSIYQGGIFELKENDRIFVSVTNEHLIDMDHEASFFGAFLVG
For the molecule B1, the “affinity for DR4” value is given as “increased affinity for DR4”.

B2: K212R: TRAIL DR4 variant, WO 2009/066174 (protein, UniProt P50591 1-281, looked up, variant K212R)
Tumor necrosis factor ligand …: B1 Tumor necrosis factor ligand … with R131G, K212R, H218D
As to B2, the “affinity for DR4” value was “increased affinity for DR4”.

B3: K204Y: TRAIL DR4 variant, WO 2009/066174 (protein, UniProt P50591 1-281, looked up, variant K204Y)
Tumor necrosis factor ligand …: B1 Tumor necrosis factor ligand … with R131G, K204Y, H218D
Turning to B3, the “affinity for DR4” value is “increased affinity for DR4”.

B4: K201H: TRAIL DR4 variant, WO 2009/066174 (protein, UniProt P50591 1-281, looked up, variant K201H)
Tumor necrosis factor ligand …: B1 Tumor necrosis factor ligand … with R131G, K201H, H218D
With B4, the “affinity for DR4” value is reported as “increased affinity for DR4”.

B5: K204D: TRAIL DR4 variant, WO 2009/066174 (protein, UniProt P50591 1-281, looked up, variant K204D)
Tumor necrosis factor ligand …: B1 Tumor necrosis factor ligand … with R131G, K204D, H218D
On to B5, for which the “affinity for DR4” value was “increased affinity for DR4”.

B6: S215D: TRAIL DR4 variant, WO 2009/066174 (protein, UniProt P50591 1-281, looked up, variant S215D)
Tumor necrosis factor ligand …: B1 Tumor necrosis factor ligand … with R131G, S215D, H218D
Turning to B6, the “affinity for DR4” value was “increased affinity for DR4”.

B7: K201R: TRAIL DR4 variant, WO 2009/066174 (protein, UniProt P50591 1-281, looked up, variant K201R)
Tumor necrosis factor ligand …: B1 Tumor necrosis factor ligand … with R131G, K201R, H218D
For the molecule B7, the “affinity for DR4” value is recorded as “increased affinity for DR4”.

B8: D218H: TRAIL DR4 variant, WO 2009/066174 (protein, UniProt P50591 1-281, looked up, variant D218H)
Tumor necrosis factor ligand …: B1 Tumor necrosis factor ligand … with R131G
For B8, the “affinity for DR4” value is listed as “increased affinity for DR4”.

B9: G131R: TRAIL DR4 variant, WO 2009/066174 (protein, UniProt P50591 1-281, looked up, variant G131R)
Tumor necrosis factor ligand …: B1 Tumor necrosis factor ligand … with H218D
As for B9, the “affinity for DR4” value is “increased affinity for DR4”.

B10: S215K: TRAIL DR4 variant, WO 2009/066174 (protein, UniProt P50591 1-281, looked up, variant S215K)
Tumor necrosis factor ligand …: B1 Tumor necrosis factor ligand … with R131G, S215K, H218D
Regarding B10, the “affinity for DR4” value is listed as “increased affinity for DR4”.

B11: S215H: TRAIL DR4 variant, WO 2009/066174 (protein, UniProt P50591 1-281, looked up, variant S215H)
Tumor necrosis factor ligand …: B1 Tumor necrosis factor ligand … with R131G, S215H, H218D
As for B11, the “affinity for DR4” value is listed as “increased affinity for DR4”.

B12: K204L: TRAIL DR4 variant, WO 2009/066174 (protein, UniProt P50591 1-281, looked up, variant K204L)
Tumor necrosis factor ligand …: B1 Tumor necrosis factor ligand … with R131G, K204L, H218D
With B12, the “affinity for DR4” value is listed as “increased affinity for DR4”.

B13: S215E: TRAIL DR4 variant, WO 2009/066174 (protein, UniProt P50591 1-281, looked up, variant S215E)
Tumor necrosis factor ligand …: B1 Tumor necrosis factor ligand … with R131G, S215E, H218D
For the molecule B13, the “affinity for DR4” value is “increased affinity for DR4”.

B14: K204E: TRAIL DR4 variant, WO 2009/066174 (protein, UniProt P50591 1-281, looked up, variant K204E)
Tumor necrosis factor ligand …: B1 Tumor necrosis factor ligand … with R131G, K204E, H218D
Consider B14, for which the “affinity for DR4” value is listed as “increased affinity for DR4”.
